Test results as given in the nanobody polyreactivity screen of Harvey et al. (2022).

test: yeast display, Sf9 membrane polyspecificity reagent, FACS + sequencing; frameworks hold sequencing errors
Procedure, shortened: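 Genes from sorted yeast were amplified by colony PCR, read by MiSeq 2 × 250 sequencing and filtered on CDR length. These cells carried a synthetic nanobody library in Saccharomyces cerevisiae BJ5465 and were sorted by FACS into low and high (top ~1%) gates on anti-HA and streptavidin fluorescence. Polyreactivity is labelled according to the gate of origin.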

Sequence	polyreactivity (PSR sort gate)
QVQLVESGGGLVQAGGSLRLSCAASGFIFRRNTMGWYRQAPGKERELVAVITWSGGRTYYADSVKGRFTISRDNAKNTVYLQMNSLKPEDTAVYDCTAEQWWSLDYWGQGTQVTVSS	low polyreactivity
QVQLVESGGGLVQAGGSLRLSCAASGRIFSAYVMGWYRQAPGKERELVAAISSGGSRTSYADSVKGRFTISRDNAKNTVYLQMNSLKPEDTAVYYCAAARFYRSAYGYWGQGTQVTVSS	high polyreactivity
QVQLVESGGGLVQAGGSLRLSCAASGSIFNTYAMGWYRQAPGKEREFVASITYRGSNTYYADSVKGRFTISRDNAKNTVYLQMNSLKPEDTAVYDCAADSFDYRPEYDYWGQGTQVTVSS	low polyreactivity
QVQLVESGGGLVQAGGSLRLSCAASGRICKRNAMGWYRQAPGKERELVAAITWSGGSTYYADSVKGRFTISRDNAKNTVYLQMNSLKPEDTAVYYCAALRVQGDYDYWGQGTQVTVSS	high polyreactivity
QVQLVESGGGLVQAGGSLRLSCAASGFTFYYNAMGWYRQAPGKERELGASITRSGGRTYYADSVKGRFTISRDYAKNTVYLQMNSLKPEDTAVYYCARRYPGGYYWGQGTHVTVSS	high polyreactivity
QVQLVESGGGLVQAGGSLRLSCAASGFTFGSNAMGWYRQAPGKEREFVATITKSGGRTYYADSVKGRFTISRDNAKNTVYFQMNSLKPEDTAVYYCAVALSYRTYRKDDYWGQGTQVTVSS	high polyreactivity
QVQLVESGGGLVQAGGSLRLSCAASGRILGRYAMGWYRQAPGKERELVAAITARTGSTYYADSVKGRFTISRDNAKNTVYLQMNSLKPEDTAVYYCAAERGWWRNDFDYWGQGTQVTVSS	high polyreactivity
QVQLVESGGGLVQAGGSLRLSCAASGSTFYSYAMGWYRQAPGKERELVAAITSGGSTNYADSVKGRFTISRDNAKNTVYLQMNSLKPEDTAVYYCAAVVSTVDGMEYWGQGTQVTVSS	low polyreactivity
QVQLVESGGGLVQAGGSLRLSCAASGITFQIYAMGWYRQAPGKERELVAAISRSGGSSTNYADSVKGRFTISRDNAKNTVYLQMYSLNPEDTAVYYCAAVSPYTGGANDYWGQGTQVTVSS	high polyreactivity
QVQLEESGGGLVQAGGSLSLSCAASGSIFYGYAMGWYRQAPGKERELVAAITSGGRTYYADSVKGRFTISRDNAKNTVYLQMNSLKPEDTAVYYCNAVYRKTSYGYWGQGTQVTVSS	high polyreactivity
QVQLVETGGGLVQAGGSLRLSCAASGFTCYRNAIGWYRQAPRKDREIVAAITSDGITYYADSVKGRFTMSRDNAKNTVYLQMNSLKPEDTAVYYCAADVQADLYSYEYDYWGQGTQVTVSS	low polyreactivity
QVQLVESGGGLVQAGGSLRLSCAASGRIFGVYAMGWYRQAPGKERELVAAITARGGSTYYADSVKGRFTISRDNAKNTVYLQMNSLKPEDTAVYYCATRLYKRTRTITYGYWGQGTQVTVSS	high polyreactivity
QVQLVESGGGLVQAGGSLRLSCAASGSTFIFNAMGWYRQAPGKERELVAAISWRLGRTYYADSVKGRFTISRDNAKKTVYLQMNSLKPEDTAVYYCARDYSRHKGDYWGQGTQVTVSS	low polyreactivity
QVQLVESGGGLVQAGGSLRLSCAASGSIFNWNAKAWYRQAPVKERELVAAITGSGTSTYYADSVKGRFTISPDYAKNTVYLQMNSLKPQDTAVYYCAVTRRSRYGYWGQGTQVTVSS	high polyreactivity
QVQLVESGGGLVQAGGSLRLSCAASGRIFRVYAMGWSRQAPGKERELVASITRTGGGTYYADSVKGRFTNSRDNAKNTVYLQMNRLKPEDPAVYYCAADAFIPGYQLHYHWGQGTQVTVSS	low polyreactivity
QVQLVESGGGLVQAGGSLRLSCAASGFTFPRYAMVWYRQAPGKERELVAAINRGGSTYYADSVKGRFTISRDNAKNTVYLQMNSLKPEDTAVYYCARARPVDTVGYVTVSGDYEFDYWGQGTQVTVSS	low polyreactivity
QVQLVESGGGLVQAGGSLRLSCAATGRTFAVYAMGWYRQAPGKERELVAAISSGGSTYYADSVKGRFTIARDNAKNTVYLQMNSLKPEDTAVYYCTARWGYRRGYWGQGTQVTVSS	high polyreactivity
QVQLVESGGGLVQAGGSLRLSCAASGSIISRTVMGWYRQAPGKEREFVATISRSGGITYYADSVKGRFTISRDNAKNTVYLQMNSLKPEDTAVYYCAAGKFVSFPSHYGYWGQGTQVTVSS	high polyreactivity
QVQLVESVGGLVQAGGSLRLSCAASGITFYDNAMGWYRQAPGKERELVAGISYSGGRTYYADSVKGRFTISRDNAKNTVYLQMNSLKPEDTAVYYCNARFGKYRSRQGYYYWGQGTQVTVSS	high polyreactivity
QVQLVESGGGLVQPGGSLRLSCAASGITFIPNALGWYRQAPGKEREFVAGITWSGGRTYYADSVKGRFTISRDNATNTVYLQMNSLKPEDTAVYYCAAEPPTYKLLDFWGQGTQVTVSS	low polyreactivity
QVQLVESGGGLVQAGGSLRLSCAASGRIFIYYAMGWYRQAPGKERELVAAISWGGGRTYYADSVKGRFTLSRYNAKNTVYLQMNSLKPEDTAVYYCAAGVYTGQNEYDYWGQGTQVTVSS	low polyreactivity
QVQLVESGGGLVQAGGSLRLSCAASGRIFQLYAMGWYRQAPGKERELVAANAWSGGSTYYADSVKGRFTISRDNAKNSVYLQMNSLKPEDTAVYDCAVEGYHGSRRYYYWGQGTQVTVSS	high polyreactivity

Sequence	polyreactivity (PSR sort gate)
QVQLVESGGGLDQAGGRLRLSCAASGSTFLLYAMGWYRQAPGKERELVAAIDTGDSTNYADSVKGRFTISRDNAKNTVYLQMNSLKREDTAVYYCNADSFPALNKRGYDYWGQGTQVTVSS	low polyreactivity
QVQLVESGGGIVQAGGSLRLSCAASGFTFQFYAMGWYRQAPGKEREFVAAISGSGGSTYYADSVKGRFTISRDNAKNTVYLQMNSLKPEDTAVYYCAAEVPGKPYRRSRYSFRHDYWGQGTQVTVSS	low polyreactivity
QVQLVESGGGLVQAGGSLRLSCAASGSTFGVYAMGWYRQAPGKERELVAAISSSTGSTYYADSVKGRFTISRDNAMNSVYLQMNSLKPEDTAVYYCDAAGYGKVLGDYWGQGTLVTVSS	low polyreactivity
QVQLVESGAGLVQAGGSLRFSCAASGFIFVAYAMGLYRPAPGKERELVAAITSSGGTTYYADSVKGRFTISRDNAKNSVYFQMNSLKPEDTAVYYSAAYRRRSPFEYWGQGTQVNVSS	high polyreactivity
QVQLVESGGGLVQAGGSLRLSCAASGFIFVKNAMGWYRQAPGKERELVATINCGSSTTYADSVKGRFTISRDNAKNTVYLQMNSLKPEDTAVYYCNADDVENWTEYDYWGQGTQVTVSS	low polyreactivity
QVQLVESGGGLVQAGGSLRLSCAASGFTFSGYAMGWYRQAPGKERELVAASTRRTGTTYYADSVKGRFTISRDNAKNTVYLQMNSLKPEDTAVYYCNKGYPSPPAGEYGYWGQGTQVTVSS	high polyreactivity
QVQLVESGGGLVQAGGSLRLSCAASGRTFYYYAMGWYRQAPGKEREFVAAITYRGDSTNYADSVKGRFTISRDNAKNTVYLQMNSLKPEDTAVYYCAADSPYQIYYYWGQGTQVTVSS	low polyreactivity
QVQLVESGGGLVQAGGSLRLSCAASGFIFNAYAMGWYRQAPGKERELVAAVSWSGARTYYADSVKGRFTISRDNAKNTVYLQMNSLKPEDTAVYYCAAEYSGVHYQQAYDYSEGLDYWGQGTQVTVSS	low polyreactivity
QVQLEESGGGLVQAGGSLRLSCAASGRIFSSYAMGWYRQAPGKERELVAAISSSGGRTYYADSVKGRFTISRDNAKNSVYLQMNSLKPEDTAVYYCARVTTGGYEYWGQGTQVTVSS	high polyreactivity
QVQLVESGGGLFQAGGSLRISCAASGLTFKINAMGWYRQAPGKERELVAAISSGTSTNYADSVKGRFTISRDNAKNTVYLQMNSLKPEDTAVYYCAARGFWGVAYRYYYWGQGTQVTVSS	high polyreactivity
QFQLVESGGGLVQAGGSLRLSCAASGLIFVYNDMGWYRQAPGKETELVAGITGTGGNTYYADSVKGRFTISRDNEKNTVYLQMNSLKPEDTAVYYCAASHTSYYLRYGYWGQGTQVTVSS	high polyreactivity
QVQLVESGGGLVQAGGSLRLSCAASGSTFAVYAMGWYRQAPGKERELVAAITRSGGDTYYADSVKGRFTISRDNAKNTVYLQMNSLKPEDTAVYYCAAAPRYGEEYWGQGTQVTVSS	low polyreactivity
QVQLVESGGGLVQAGGSLRLSCAASGFTFYVYAMGWYRQAPGKERELVAAISKSGGSTYYADSVKGRFTISRDNAKNTVYLQMNSLKPEDTAVYYCAVYDKRSGYRGGHRYNSWGQGTQVTVSS	high polyreactivity
QVQHVESGGGIVQAGGSLRLSCAASGSTIVDNYMGWYRQAPGKERELVAVINSGGSTYYADSVKGRFTISRDNAKNTGYLQMNSLKPEDTAVYYCAADDIPYGSVYTSIGLDYWGQGTQVTVSS	low polyreactivity
QDQHVESGGGLVQAGGSLRLSCDASGITFWYYAMGWYRQAPGKERELVAAISRRGGATYYADSVKGRFTISRDNAKNTVYLQLNSLKPEDTAVYYCNALLAGRRVARGYDSWGQGTQVTVSS	high polyreactivity
QVQLVESGGGLVQAGGSLRLSCAASGFIFEGYAMGWYRQAPGKERELVAAINWSGTTTYYADSVKGRFTISRDNAKNTVYLQMNSLKPEDTAVYYCNARYYVLRGYDYWGQGTQVTVSS	low polyreactivity
QVQLVESGAGLVQAGVSLGLSCAASGFTFVRDAMGWYRQAPGKEREFVASISARGGNTFYADSVQGRFSISRDNAKNTVYLKMNSLKPEDTAVYYCAKRGPYGTGYGYWGQGTQVTVSS	high polyreactivity
QVQLVESGGGLVQAGGSLRLSCAASGITFHRYAMGWYRQAPGKERELVAGINGRGGSTYYADSVKGRFTISRDNAKNTVYLQMNSLKPEDTAVYYCNAVYAGRYFGFDYWGQGTQVTVSS	high polyreactivity
QVQLVESGGGLVQAGGSLRLSCAASGSTFAFNTKGWYRQAPGKERELVAGISSNGGRTYYADSVKGRFTISRDNAKNTVYLQMNSLKPEDTAVYYCNALRRYVSVRPTKSDDWGQGTQVTVSS	high polyreactivity
QVQLEESCGGLVQAGGSLRLSCAASGRTFRYYPMGWYRQAPGKERELVAAITTGSSTYYADSVKGRFTISRDNANNTVYLQMNSLKPEDTAVFYCNVFQGTRYGYWGQGTQVTVSS	low polyreactivity
QVQLVESGGGLVQAGGSLRLSCAASGLTFSRYAMGWYRQAPGKERELVAAITWSGSSTYYADSVKGRFTISRDNAKNTVYLQMNSLKPEDTAVYYCAARYGYSRGPYYRSDYWGQGTQVNVSS	high polyreactivity
